This note sets out measurements from publication PMC12199414, “A Self‐Assembling LYTAC Mediates CTGF Degradation and Remodels Inflammatory Tumor Microenvironment for Triple‐Negative Breast Cancer Therapy” (Advanced Science, 2025).

A short description of series [1]: Dynamic light scattering: size, PDI, zeta potential. Particulars: DLS, 500 µg/mL in PBS. The series is classed as physicochemical. The protocol: A solution of 1‐Dodecanethiol (0.5 mmol) and 2,2′‐Dithiodipyridine (0.6 mmol) in 10 mL MeOH was vigorously stirred for 3 h at room temperature. The reaction mixture was diluted with petroleum ether/ethyl acetate (50:1, v/v). The purified products 2‐(dodecyldisulfaneyl)pyridine were characterized by MS. CL8‐M6P3 (1.4 mg, 0.56 µmol, 1 eq.) and 2‐(dodecyldisulfaneyl)pyridine (261.7 µg, 0.84 µmol, 1.5 eq.) dissolved in 1 mL DMF/ddH2O (1/1, v:v) was vigorously stirred for 16 h at room temperature. The products were diluted with ddH2O. The aqueous layer was extracted with ethyl acetate three times, and filtered and concentrated under reduced pressure. For particle size measurement, NanoCLY was prepared at a final concentration of 500 µg/mL in PBS, sonicated for 30 min, and used for particle size analyzer (Malvern Panalytical, UK), transmission electron microscope (TEM) analysis (JEOL, Japan) and Nanosight NS300 (Malvern Panalytical, UK). 2‐(dodecyldisulfaneyl)pyridine, ESI‐MS calcd for C17H29NS2 [M + H]^+ 312.55, found 312.20. NanoCLY, ESI‐MS calcd for C107H176N27O47P3S2 [M + H]^+ 2750.77, found 1375.50.

Series [2] is described as follows: Stability of nanoparticles in PBS. The series is classed as physicochemical. The following applies: PBS pH 7.4, 37 °C, n = 3.
Series [3] deals with red blood cells. The series can be described thus: Hemolysis assay. The series is classed as cell-based, mice. Particulars: mouse erythrocytes, 0-30 × 10^−6 M, 1 h, 37 °C, absorbance 570 nm. The method, then: The hemolytic activities of CL8, CL8‐M6P3, and NanoCLY were determined by monitoring hemoglobin release from red blood cells. Fresh erythrocytes were obtained from the whole blood of mice by centrifugation (1000 × g for 30 min at 4 °C), and washed three times with cold 0.9% NaCl. The erythrocytes were dispensed into 96‐well plates, incubated with CL8, CL8‐M6P3 and NanoCLY at specified concentrations (0, 0.3, 1, 3, 10, and 30 × 10^−6 M) for 1 h at 37 °C, centrifuged at 1000 × g for 10 min, the supernatant samples were collected, and the absorbance at 570 nm was measured by microplate reader Cytation 5 (Biotek, USA). The negative control group was defined as the absorbance obtained in 1× PBS (A PBS), and 100% hemolysis in 0.1%Triton X‐100 (v/v) (A Triton). The hemolysis percentage was calculated as: (A peptide − A PBS)/(ATriton − A PBS) × 100%.

Turning to “C12-CPSAAHYL-PEG3-[Pra(M6P)βAla]3-NH2 [NanoCLY, CL8-M6P3 joined to a lauryl chain via disulfide; self-assembling GSH-responsive LYTAC nanoparticle]”, in series [1], the “polymer dispersity index (PDI)” value was determined as 0.301 ± 0.059. Further, the “hydrodynamic diameter (size)” value in series [1] (sonicated 30 min) stood at 118.0 ± 9.38 nm. For the same substance, the “stability in PBS (size and PDI)” value in series [2] is reported as “at least 72 h”. For the same substance, in series [3], the hemolysis safety entry is given as “good hemolysis safety”.
